The nature of assay [1]: RRK loop library variant screening, mogroside V substrate. As to conditions: second pass evaluation, 10 mM mogroside V, pH 5.6, 37° C., 72 hours. It is filed as biochemical. On the procedure:
(§1) Single transformant colonies from 3.2.2 were inoculated into 2mL BMGY in 48 well-growth blocks and grown overnight at 30° C., 1000 rpm in a benchtop incubator before dilution of cell culture from each well into 2 mL BMM medium an equivalent well in a fresh growth block, to an OD600 nm of 1.0, and growing the induction growth blocks at 30° C., 1000 rpm in a benchtop incubator for 72 hours. The cells were then harvested (5000 g, 10 minutes) and the supernatant from each well concentrated using a 30 kDa cut-off Amicon Ultra 0.5 mL concentrator column (10 000 g, 5 minutes). Enzymatic assays were setup in fresh growth blocks to a total volume of 500 μL, comprising with 50 mM sodium citrate buffer pH 5.6, 10 mM magnesium chloride, 10 mM mogroside V and 50 μL concentrated supernatant (˜35 μg mL−1 protein). Assays were incubated without shaking at 37° C. for 72 hours. 190 μL of reaction was combined with 10 μL 10 mM internal standard (N-Boc-) and 5 μL analyzed by HPLC.
(§2) Mogroside compounds HPLC separation and quantification was conducted using a Synergi Hydro-RP column (250 mm×4.6 mm or 150 mm×4.6 mm) with an initial flow rate of 1 mL min−1 and a water: acetonitrile gradient as per below, similar to that described by Zhou et al. (WO 2014/150127). Compounds were detected at 210 nm using diode array detector (Agilent Technologies, USA), and calibration curves established using standard curves from 0.1 to 10 mM. 150 mm column retention times in minutes: mog V 9.5, sia 1 10.6, mog IVa 10.5, mog IV 11.3, mog III 12.6, mogl I 13.2. 250 mm column retention times: mog V 12.3, sia 1 13.2, mog IVa 13.5, mog IV 14.1, mog III 15.3, mog II 16.2.
Therefore, variants showing improved function were chosen if they surpassed a yield value >70% by peak area during this first pass evolution.
(§3) 48 variants were selected based on Siamenoside I yields of >70% by peak area for a second pass evaluation. The cell lines were regrown and assayed with both mogroside V and Siamenoside I as substrates, independently.

The nature of assay [2]: RRK loop library variant second pass evaluation, Siamenoside I substrate. The note with it: Siamenoside I as substrate. It is filed as biochemical. The method, then:
as §1, §2, §3

B1: S1 RRK 14: RRK loop library variant, positions 204/205/208: NNE (protein, UniProt Q2UCU3 19-1005, looked up, variant G204N C205N V208E)
Beta-galactosidase A: ASIKHRLNGFTILEHPDPAKRDLLQDIVTWDDKSLFINGERIMLFSGEVHPFRLPVPSLWLDIFHKIRALGFNCVSFYIDWALLEGKPGDYRAEGIFALEPFFDAAKEAGIYLIARPGSYINAEVSGGGFPGWLQRVNGTLRSSDEPFLKATDNYIANAAAAVAKAQITNGGPVILYQPENEYSGNNCGEKYPDADYMQYVMDQARKADIVVPFISNDASPSGHNAPGSGTGAVDIYGHDSYPLGFDCANPSVWPEGKLPDNFRTLHLEQSPSTPYSLLEFQAGAFDPWGGPGFEKCYALVNHEFSRVFYRNDLSFGVSTFNLYMTFGGTNWGNLGHPGGYTSYDYGSPITETRNVTREKYSDIKLLANFVKASPSYLTATPRNLTTGVYTDTSDLAVTPLIGDSPGSFFVVRHTDYSSQESTSYKLKLPTSAGNLTIPQLEGTLSLNGRDSKIHVVDYNVSGTNIIYSTAEVFTWKKFDGNKVLVLYGGPKEHHELAIASKSNVTIIEGSDSGIVSTRKGSSVIIGWDVSSTRRIVQVGDLRVFLLDRNSAYNYWVPELPTEGTSPGFSTSKTTASSIIVKAGYLLRGAHLDGADLHLTADFNATTPIEVIGAPTGAKNLFVNGEKASHTVDKNGIWSSEVKYAAPEIKLPGLKDLDWKYLDTLPEIKSSYDDSAWVSADLPKTKNTHRPLDTPTSLYSSDYGFHTGYLIYRGHFVANGKESEFFIRTQGGSAFGSSVWLNETYLGSWTGADYAMDGNSTYKLSQLESGKNYVITVVIDNLGLDENWTVGEETMKNPRGILSYKLSGQDASAITWKLTGNLGGEDYQDKVRGPLNEGGLYAERQGFHQPQPPSESWESGSPLEGLSKPGIGFYTAQFDLDLPKGWDVPLYFNFGNNTQAARAQLYVNGYQYGKFTGNVGPQTSFPVPEGILNYRGTNYVALSLWALESDGAKLGSFELSYTTPVLTGYGNVESPEQPKYEQRKGAY
As to B1, in assay [1], the “% Peak Area Siamenoside I” value turned out to be 74 % Peak Area and the “Reaction Progress” value worked out at 75. For the same molecule, the “Siamenoside I Substrate Evaluation % Peak Area Siamenoside I Left After 72 hr” value in assay [2] is on record as 84 % Peak Area.

B2: S2 RRK 13: RRK loop library variant, positions 204/205/208: EES (protein, UniProt Q2UCU3 19-1005, looked up, variant G204E C205E V208S)
Beta-galactosidase A: ASIKHRLNGFTILEHPDPAKRDLLQDIVTWDDKSLFINGERIMLFSGEVHPFRLPVPSLWLDIFHKIRALGFNCVSFYIDWALLEGKPGDYRAEGIFALEPFFDAAKEAGIYLIARPGSYINAEVSGGGFPGWLQRVNGTLRSSDEPFLKATDNYIANAAAAVAKAQITNGGPVILYQPENEYSGEECGSKYPDADYMQYVMDQARKADIVVPFISNDASPSGHNAPGSGTGAVDIYGHDSYPLGFDCANPSVWPEGKLPDNFRTLHLEQSPSTPYSLLEFQAGAFDPWGGPGFEKCYALVNHEFSRVFYRNDLSFGVSTFNLYMTFGGTNWGNLGHPGGYTSYDYGSPITETRNVTREKYSDIKLLANFVKASPSYLTATPRNLTTGVYTDTSDLAVTPLIGDSPGSFFVVRHTDYSSQESTSYKLKLPTSAGNLTIPQLEGTLSLNGRDSKIHVVDYNVSGTNIIYSTAEVFTWKKFDGNKVLVLYGGPKEHHELAIASKSNVTIIEGSDSGIVSTRKGSSVIIGWDVSSTRRIVQVGDLRVFLLDRNSAYNYWVPELPTEGTSPGFSTSKTTASSIIVKAGYLLRGAHLDGADLHLTADFNATTPIEVIGAPTGAKNLFVNGEKASHTVDKNGIWSSEVKYAAPEIKLPGLKDLDWKYLDTLPEIKSSYDDSAWVSADLPKTKNTHRPLDTPTSLYSSDYGFHTGYLIYRGHFVANGKESEFFIRTQGGSAFGSSVWLNETYLGSWTGADYAMDGNSTYKLSQLESGKNYVITVVIDNLGLDENWTVGEETMKNPRGILSYKLSGQDASAITWKLTGNLGGEDYQDKVRGPLNEGGLYAERQGFHQPQPPSESWESGSPLEGLSKPGIGFYTAQFDLDLPKGWDVPLYFNFGNNTQAARAQLYVNGYQYGKFTGNVGPQTSFPVPEGILNYRGTNYVALSLWALESDGAKLGSFELSYTTPVLTGYGNVESPEQPKYEQRKGAY
With B2, in assay [1], the “% Peak Area Siamenoside I” value is recorded as 72 % Peak Area and the “Reaction Progress” value amounted to 88. Also, the “Siamenoside I Substrate Evaluation % Peak Area Siamenoside I Left After 72 hr” value in assay [2] came to 73 % Peak Area.

B3: S2 RRK 12: RRK loop library clone, positions 204/205/208: GCV (wildtype) (protein, UniProt Q2UCU3 19-1005, looked up)
Beta-galactosidase A: ASIKHRLNGFTILEHPDPAKRDLLQDIVTWDDKSLFINGERIMLFSGEVHPFRLPVPSLWLDIFHKIRALGFNCVSFYIDWALLEGKPGDYRAEGIFALEPFFDAAKEAGIYLIARPGSYINAEVSGGGFPGWLQRVNGTLRSSDEPFLKATDNYIANAAAAVAKAQITNGGPVILYQPENEYSGGCCGVKYPDADYMQYVMDQARKADIVVPFISNDASPSGHNAPGSGTGAVDIYGHDSYPLGFDCANPSVWPEGKLPDNFRTLHLEQSPSTPYSLLEFQAGAFDPWGGPGFEKCYALVNHEFSRVFYRNDLSFGVSTFNLYMTFGGTNWGNLGHPGGYTSYDYGSPITETRNVTREKYSDIKLLANFVKASPSYLTATPRNLTTGVYTDTSDLAVTPLIGDSPGSFFVVRHTDYSSQESTSYKLKLPTSAGNLTIPQLEGTLSLNGRDSKIHVVDYNVSGTNIIYSTAEVFTWKKFDGNKVLVLYGGPKEHHELAIASKSNVTIIEGSDSGIVSTRKGSSVIIGWDVSSTRRIVQVGDLRVFLLDRNSAYNYWVPELPTEGTSPGFSTSKTTASSIIVKAGYLLRGAHLDGADLHLTADFNATTPIEVIGAPTGAKNLFVNGEKASHTVDKNGIWSSEVKYAAPEIKLPGLKDLDWKYLDTLPEIKSSYDDSAWVSADLPKTKNTHRPLDTPTSLYSSDYGFHTGYLIYRGHFVANGKESEFFIRTQGGSAFGSSVWLNETYLGSWTGADYAMDGNSTYKLSQLESGKNYVITVVIDNLGLDENWTVGEETMKNPRGILSYKLSGQDASAITWKLTGNLGGEDYQDKVRGPLNEGGLYAERQGFHQPQPPSESWESGSPLEGLSKPGIGFYTAQFDLDLPKGWDVPLYFNFGNNTQAARAQLYVNGYQYGKFTGNVGPQTSFPVPEGILNYRGTNYVALSLWALESDGAKLGSFELSYTTPVLTGYGNVESPEQPKYEQRKGAY
For B3, in assay [1], the “% Peak Area Siamenoside I” value was 66 % Peak Area and the “Reaction Progress” value is 89. For the same molecule, the “Siamenoside I Substrate Evaluation % Peak Area Siamenoside I Left After 72 hr” value in assay [2] stood at 35 % Peak Area.

B4: S2 RRK 2: RRK loop library variant, positions 204/205/208: GDG (protein, UniProt Q2UCU3 19-1005, looked up, variant C205D V208G)
Beta-galactosidase A: ASIKHRLNGFTILEHPDPAKRDLLQDIVTWDDKSLFINGERIMLFSGEVHPFRLPVPSLWLDIFHKIRALGFNCVSFYIDWALLEGKPGDYRAEGIFALEPFFDAAKEAGIYLIARPGSYINAEVSGGGFPGWLQRVNGTLRSSDEPFLKATDNYIANAAAAVAKAQITNGGPVILYQPENEYSGGDCGGKYPDADYMQYVMDQARKADIVVPFISNDASPSGHNAPGSGTGAVDIYGHDSYPLGFDCANPSVWPEGKLPDNFRTLHLEQSPSTPYSLLEFQAGAFDPWGGPGFEKCYALVNHEFSRVFYRNDLSFGVSTFNLYMTFGGTNWGNLGHPGGYTSYDYGSPITETRNVTREKYSDIKLLANFVKASPSYLTATPRNLTTGVYTDTSDLAVTPLIGDSPGSFFVVRHTDYSSQESTSYKLKLPTSAGNLTIPQLEGTLSLNGRDSKIHVVDYNVSGTNIIYSTAEVFTWKKFDGNKVLVLYGGPKEHHELAIASKSNVTIIEGSDSGIVSTRKGSSVIIGWDVSSTRRIVQVGDLRVFLLDRNSAYNYWVPELPTEGTSPGFSTSKTTASSIIVKAGYLLRGAHLDGADLHLTADFNATTPIEVIGAPTGAKNLFVNGEKASHTVDKNGIWSSEVKYAAPEIKLPGLKDLDWKYLDTLPEIKSSYDDSAWVSADLPKTKNTHRPLDTPTSLYSSDYGFHTGYLIYRGHFVANGKESEFFIRTQGGSAFGSSVWLNETYLGSWTGADYAMDGNSTYKLSQLESGKNYVITVVIDNLGLDENWTVGEETMKNPRGILSYKLSGQDASAITWKLTGNLGGEDYQDKVRGPLNEGGLYAERQGFHQPQPPSESWESGSPLEGLSKPGIGFYTAQFDLDLPKGWDVPLYFNFGNNTQAARAQLYVNGYQYGKFTGNVGPQTSFPVPEGILNYRGTNYVALSLWALESDGAKLGSFELSYTTPVLTGYGNVESPEQPKYEQRKGAY
With B4, in assay [1], the “% Peak Area Siamenoside I” value worked out at 76 % Peak Area and the “Reaction Progress” value is given as 87. In assay [2], the “Siamenoside I Substrate Evaluation % Peak Area Siamenoside I Left After 72 hr” value stood at 78 % Peak Area.

(Values after patent publication US12247238B2, “Mogroside biocatalysis methods and products” (The Coca-Cola Company, priority 2019, dated 2025).)
